Three molecules from PMC13044988, “Vaspin identified as a DNA‐binding serpin with functional consequences for protease inhibition” can be followed below.

Residue numbers refer to the chain shown, from its start.

In general, Kd refers to the concentration at which binding is half-saturated.

In data set [1] the target is T1, NHB vaspin (nonheparin-binding) (Homo sapiens, UniProt Q8IW75 21-414, K131A;K188A;R211A;K359A;R363A).
T1 sequence: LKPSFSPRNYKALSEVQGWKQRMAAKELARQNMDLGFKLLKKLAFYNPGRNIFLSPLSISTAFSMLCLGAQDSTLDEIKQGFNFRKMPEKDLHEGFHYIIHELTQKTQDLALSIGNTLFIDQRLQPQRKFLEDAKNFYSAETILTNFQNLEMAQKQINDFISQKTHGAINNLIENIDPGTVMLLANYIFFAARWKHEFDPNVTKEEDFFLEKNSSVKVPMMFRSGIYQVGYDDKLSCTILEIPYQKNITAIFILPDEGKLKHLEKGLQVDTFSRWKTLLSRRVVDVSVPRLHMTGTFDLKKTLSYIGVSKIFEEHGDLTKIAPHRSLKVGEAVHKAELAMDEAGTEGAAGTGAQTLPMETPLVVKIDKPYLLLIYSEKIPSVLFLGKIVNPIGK
Put plainly: DRaCALA; Buffer 2; DRaCALA: Buffer 2, 20 mM Tris/HCl pH 7.8, 15 mM NaCl, 50 nM labeled ssDNA, 10 min at 20 C; screening also in Buffer 1 (20 mM Tris/HCl pH 7.8, 150 mM NaCl) and Buffer 3 (20 mM Tris/HCl pH 7.8, 15 mM KCl). As to conditions: protein: recombinant; label: 5'-32P.

In data set [2] the target is T2, vaspin WT (Homo sapiens, UniProt Q8IW75 21-414).
T2 sequence: T1 sequence with A111K, A168K, A191R, A339K, A343R
Described as above. As to conditions: protein: recombinant; label: 5'-32P.

The target in data set [3] is KLK7 (kallikrein 7) (Homo sapiens, UniProt P49862 30-253). The description is as above. Particulars: protein: recombinant; label: 5'-32P.
Sequence of KLK7 (kallikrein 7) (P49862 30-253): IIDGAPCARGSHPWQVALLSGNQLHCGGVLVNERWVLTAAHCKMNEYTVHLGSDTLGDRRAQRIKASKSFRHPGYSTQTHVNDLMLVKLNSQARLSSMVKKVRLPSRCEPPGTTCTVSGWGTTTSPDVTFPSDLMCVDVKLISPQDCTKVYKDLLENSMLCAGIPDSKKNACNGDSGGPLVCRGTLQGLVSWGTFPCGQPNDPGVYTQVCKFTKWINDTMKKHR
Data set [4] deals with T3, antichymotrypsin (ACT) (Homo sapiens, UniProt P01011 24-423).
T3 sequence: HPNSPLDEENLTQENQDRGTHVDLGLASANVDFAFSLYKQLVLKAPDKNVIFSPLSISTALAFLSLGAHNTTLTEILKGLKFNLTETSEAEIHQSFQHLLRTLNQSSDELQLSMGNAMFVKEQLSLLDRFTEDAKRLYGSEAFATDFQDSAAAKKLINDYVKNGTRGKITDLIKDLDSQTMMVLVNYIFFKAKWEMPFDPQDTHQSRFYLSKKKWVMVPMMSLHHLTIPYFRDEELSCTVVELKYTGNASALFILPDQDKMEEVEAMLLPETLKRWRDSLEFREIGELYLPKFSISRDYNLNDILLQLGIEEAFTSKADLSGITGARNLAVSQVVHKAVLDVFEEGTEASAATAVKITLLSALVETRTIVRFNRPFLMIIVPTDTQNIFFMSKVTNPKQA
Put plainly: DRaCALA; Buffer 1 (150 mM NaCl), 1 uM protein; DRaCALA: Buffer 2, 20 mM Tris/HCl pH 7.8, 15 mM NaCl, 50 nM labeled ssDNA, 10 min at 20 C; screening also in Buffer 1 (20 mM Tris/HCl pH 7.8, 150 mM NaCl) and Buffer 3 (20 mM Tris/HCl pH 7.8, 15 mM KCl). As to conditions: label: 5'-32P.

B1: 20 base ssDNA (ssDNA)
DNA: GACGGATCGGGAGATCTCCC
Turning to B1, the figures for the Kd in data set [1], in data set [2] and in data set [3] were 269 nM, 59 nM and 2070 nM, respectively.

B2: 120 base ssDNA (ssDNA)
DNA: GACGGATCGGGAGATCTCCCGATCCCCTATGGTGCACTCTCAGTACAATCTGCTCTGATGCCGCATAGTTAAGCCAGTATCTGCTCCCTGCTTGTGTGTTGGAGGTCGCTGAGTAGTGCG
On to B2, for which the Kd was found to be 178 nM in data set [1], 128 nM in data set [2] and 1070 nM in data set [3].

B3: 60 base ssDNA (ssDNA)
DNA: GACGGATCGGGAGATCTCCCGATCCCCTATGGTGCACTCTCAGTACAATCTGCTCTGATG
In the case of B3, the figures for the Kd in data set [1], in data set [2] and in data set [3] were 188 nM, 117 nM and 815 nM, respectively. Further, the binding result in data set [4] is “no binding”.
